{"source": "patent US20240191211A1", "about": "“BIOLUMINESCENCE-TRIGGERED PHOTOCATALYTIC LABELING” (Promega Corporation, priority 2022, published 2024)", "molecules": {"B1": {"name": "VS-HiBiT/LgBiT-HaloTag: bioluminescent complementation reporter comprising VS-HiBiT peptide and LgBiT-HaloTag (protein)", "chain": "MVFTLEDFVGDWEQTAAYNLDQVLEQGGVSSLLQNLAVSVTPIQRIVRSGENALKIDIHVIIPYEGLSADQMAQIEEVFKVVYPVDDHHFKVILPYGTLVIDGVTPNMLNYFGRPYEGIAVFDGKKITVTGTLWNGNKIIDERLITPDGSMLFRVTINSMAEIGTGFPFDPHYVEVLGERMHYVDVGPRDGTPVLFLHGNPTSSYVWRNIIPHVAPTHRCIAPDLIGMGKSDKPDLGYFFDDHVRFMDAFIEALGLEEVVLVIHDWGSALGFHWAKRNPERVKGIAFMEFIRPIPTWDEWPEFARETFQAFRTTDVGRKLIIDQNVFIEGTLPMGVVRPLTEVEMDHYREPFLNPVDREPLWRFPNELPIAGEPANIVALVEEYMDWLHQSPVPKLLFWGTPGVLIPPAEAARLAKSLPNCKAVDIGPGLNLLQEDNPDLIGSEIARWLSTLEISG", "modifications": "left off: large carriers"}}, "key": {"[1]": {"assay": "Brightness and BRET efficiency to a bound HaloTag TMR-fluorescent ligand", "format": "biochemical", "settings": "versus HaloTag-LgBiT configuration, complemented with VS-HiBiT", "source_text": "The efficiency of bioluminescence-triggered catalyst activation depends on the emission intensity of the luciferase energy donor, spectral overlap between luciferase emission and catalyst excitation, proximity between the luciferase and catalyst, and capacity of the complex to adopt a conformation favorable for efficient energy transfer between the two. First, the influence of the NanoLuc-HaloTag fusion orientation on the efficiency of bioluminescence resonance energy transfer (BRET) to a bound HaloTag TMR-fluorescent ligand was tested. To this end, fusions either untethered or tethered to a HaloTag TMR-fluorescent ligand were diluted in TBS+0.01% BSA to a final concentration of 6.6 nM and then treated with 10× fluorofurimazine at a final concentration of 20 M. Following 3 minutes incubation, raw luminescence (Total RLU) or filtered luminesces for donor (e.g., 450 nm/8 nm BP) and acceptor (600 nm LP) emissions, respectively were measured on a GloMax® Discover plate reader (Promega). BRET ratios were further calculated for each sample by dividing the acceptor emission value by its donor emission value. While both orientations delivered equivalent brightness one of them NanoLuc-HaloTag provided greater BRET efficiency (FIG. 16A), which is likely due to greater proximity between NanoLuc's substrate binding site and the bound fluorescent ligand. […]"}, "VS-HiBiT peptide": {"test_system": "VS-HiBiT peptide", "assay": "Complementation affinity with VS-HiBiT peptide", "format": "binding", "settings": "versus HaloTag-LgBiT configuration", "source_text": "Such configuration offers a modality agnostic approach for proximity between the photocatalytic complex and protein of interest genetically fused to HiBiT as well as greater spatial control over photocatalytic reactivity. First, the properties of the bioluminescent complementation reporter comprising VS-HiBiT peptide and either HaloTag-LgBiT or LgBiT-HaloTag were compared (FIG. 23 A-C). To determine complementation affinity, equal volumes of VS-HiBiT peptide serially diluted in TBS+0.01% BSA to final concentrations of 200-0 nM and HaloTag-LgBiT or LgBiT-HaloTag diluted in TBS+0.01% BSA to a final concentration of 0.2 nM were combined in wells of a white 96-well plate and mixed for 30 minutes. Following a 3-minutes treatment with either 10× furimazine or fluorofurimazine at a final concentration 20 M, bioluminescence was measured on a GloMax® Discover plate reader (Promega), and binding affinity (Kd) was derived from a saturation binding curve of luminescence against VS-HiBiT concentration (FIG. 23A). […] Following a 3-minutes treatment with either 10× furimazine or fluorofurimazine at a final concentration 20 M, raw luminescence (Total RLU; FIG. 23B) or filtered luminesces of donor (e.g., 450 nm/8 nm BP) and acceptor (600 nm LP) emissions were measured on a GloMax® Discover plate reader (Promega). […]"}}, "data": [{"molecule": "B1", "values": [{"measurement": "BRET efficiency, fold greater", "setting": "[1]", "value": "1.5-2 fold"}, {"measurement": "complementation affinity, fold higher", "setting": "VS-HiBiT peptide", "value": 3, "unit": "fold"}]}]}
